Data from article PMC11626198, “Molecular insights into the interaction between a disordered protein and a folded RNA”.

T1: SERF (Small ERDK-Rich Factor) (Saccharomyces cerevisiae, UniProt Q3E7B7)
T1 sequence: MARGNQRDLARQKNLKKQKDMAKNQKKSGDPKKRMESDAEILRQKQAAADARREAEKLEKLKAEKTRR


Target: T1, SERF (Small ERDK-Rich Factor)
Test: fluorescence anisotropy; 1:1 model, KD,app; Anisotropy buffer not given in the material; NMR at 27 C; native IM-MS in 100 mM ammonium acetate pH 7.5
Conditions: protein: recombinant, tags: His6-SUMO removed by ULP1 (scarless)

Binder	Kd (single strand) [µM]	Kd (hairpin with UCU bulge and hexanucleotide loop) [µM]
UUUUUUUUUUUUUUUUUUUUUUUUUUUUUU (ssRNA) [FAM-(rU)30]	1.9 ± 0.2	
GGCAGAUCUGAGCCUGGGAGCUCUCUGCC (structured_RNA) [FAM-TAR]		0.67 ± 0.04
